Results on 1 substance are retold here after publication PMC3043101.

This experiment has as its target invariant chain (Ii), endogenous in Raji cells (human (endogenous in Raji)) (UniProt P04233). The experiment is described as follows: cross-linking; pooled sucrose gradient fractions 7/8 or 14/15 of Raji cell lysate; increasing DSP (up to 200 µg/ml), 2 h on ice; non-reducing SDS-PAGE; western blot for DRα (TAL-1B5) or Ii (Bu43). Background: In western blotting, separated proteins are transferred to a membrane and probed.

With “invariant chain (Ii), endogenous in Raji cells (from UniProt P04233 1-296) (natural protein)”, the stoichiometry N (commonly the number of molecules, sites or subunits per partner or assembly) was 3.
